# From patent US7268108
# [ ]: non-standard residue; d: D form. The star is where a group is joined. dPhe(4-NO2) = N[C@H](Cc1ccc([N+](=O)[O-])cc1)C(=O)O; Benzenesulfonyl = O=S(=O)(c1ccccc1)*; d(hPhe) = N[C@H](CCc1ccccc1)C(=O)O; d2Thi = N[C@H](Cc1cccs1)C(=O)O; NMeNle = CCCC[C@H](NC)C(=O)O; PyrProp = pyridinepropionyl; Tos = Cc1ccc(S(=O)(=O)*)cc1; Nle = CCCC[C@H](N)C(=O)O
# B1: Compound No. 2 in the Table, Ac-Nle-Ala-His-DPhe-Lys-Trp-NH2 (peptide)
# peptide: Ac-[Nle]AH[dF]KW-NH2
# SMILES: CCCC[C@H](NC(C)=O)C(=O)N[C@@H](C)C(=O)N[C@@H](Cc1c[nH]cn1)C(=O)N[C@H](Cc1ccccc1)C(=O)N[C@@H](CCCCN)C(=O)N[C@@H](Cc1c[nH]c2ccccc12)C(N)=O
# B2: Compound No. 6 in the Table, BzlSO2-Nle-Ala-His-DPhe-Lys-Trp-NH2 (peptide)
# peptide: Benzenesulfonyl-[Nle]AH[dF]KW-NH2
# SMILES: CCCC[C@H](NS(=O)(=O)c1ccccc1)C(=O)N[C@@H](C)C(=O)N[C@@H](Cc1c[nH]cn1)C(=O)N[C@H](Cc1ccccc1)C(=O)N[C@@H](CCCCN)C(=O)N[C@@H](Cc1c[nH]c2ccccc12)C(N)=O
# Target: melanocortin-1 receptor (MC-1r) on murine melanocytes (line S91 Cloudman) (murine) (UniProt Q01727)
# Assay: cell-based or functional assay
# Sequence of melanocortin-1 receptor (MC-1r) on murine melanocytes (line S91 Cloudman) (murine) (Q01727 whole entry): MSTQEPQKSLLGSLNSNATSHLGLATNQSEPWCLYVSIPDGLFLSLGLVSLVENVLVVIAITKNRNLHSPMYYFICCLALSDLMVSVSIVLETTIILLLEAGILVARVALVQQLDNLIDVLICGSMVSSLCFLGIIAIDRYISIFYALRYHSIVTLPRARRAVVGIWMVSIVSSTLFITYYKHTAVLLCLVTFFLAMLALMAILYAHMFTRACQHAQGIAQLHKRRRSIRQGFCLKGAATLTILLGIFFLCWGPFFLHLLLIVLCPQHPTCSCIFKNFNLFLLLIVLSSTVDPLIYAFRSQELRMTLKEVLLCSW
row,Binder,cAMP production (as % of α-MSH)
1,"PyrProp-[Nle]AH[dPhe(4-NO2)]RW-NH2 [Compound No. 11 in the Table, PyrProp-Nle-Ala-His-DpNO2Phe-Arg-Trp-NH2]",150 % of α-MSH
2,"Ac-[NMeNle]AH[d(hPhe)]RW-NH2 [Compound No. 13 in the Table, Ac-MeNle-Ala-His-DHomoPhe-Arg-Trp-NH2]",55 % of α-MSH
3,"Ac-[Nle]AH[d(hPhe)]RW-NH2 [Compound No. 14 in the Table, Ac-Nle-Ala-His-DHomoPhe-Arg-Trp-NH2]",45 % of α-MSH
4,"Ac-[Nle]AH[dF]RW-NH2 [Compound No. 1 in the Table, Ac-Nle-Ala-His-DPhe-Arg-Trp-NH2]",80 % of α-MSH
5,B1,40 % of α-MSH
6,"Ac-[Nle]AH[d2Thi]RW-NH2 [Compound No. 3 in the Table, Ac-Nle-Ala-His-DThi-Arg-Trp-NH2]",10 % of α-MSH
7,"Benzenesulfonyl-[Nle]AH[dF]RW-NH2 [Compound No. 4 in the Table, BzlSO2-Nle-Ala-His-DPhe-Arg-Trp-NH2]",70 % of α-MSH
8,"Tos-[Nle]AH[dF]RW-NH2 [Compound No. 5 in the Table, Tos-Nle-Ala-His-DPhe-Arg-Trp-NH2]",100 % of α-MSH
9,B2,55 % of α-MSH
